The labels stand for the following.
B1: SDP051 humanized anti-Cad-11 EC1 antibody (Vκ1/VH5) (antibody, IgG4, V domains shown)
VH: EVQLVQSGAEVKKPGASVKVSCKASGYSFTGYFMNWVRQAPGQGLEWIGRINPYTGDTFYNQKFKGRVTITVDKSTSTAYMELSSLRSEDTAVYYCGRLGSRYWYFDVWGQGTTVTVSS
VL: DVLMTQTPLSSPVTLGQPASISCRSSQSIIHSNGNTYLEWYLQKPGQSPQLLIYKVSNRFSGVPDRFTGSGSGTDFTLKISRVEAEDVGVYYCFQGSHVPWTFGQGTKLEIK
notes: humanized IgG4 (S241P), kappa
B4: Cad-7 37-mer peptide linked to BSA (peptide, UniProt Q9ULB5 48-84, looked up)
peptide: SWVWNQFFVLEEYMGSDPLYVGKLHSDVDKGDGSIKY
modifications: also: linked to BSA
notes: also called Cad-7 antigen; Cad-7 peptide
B5: Cad-9 37-mer peptide linked to BSA (peptide, UniProt Q9ULB4 54-90, looked up)
peptide: GWMWNQFFLLEEYTGTDTQYVGKLHTDQDKGDGNLKY
modifications: also: linked to BSA
notes: also called Cad-9 antigen; Cad-9 peptide

The target in experiment [1] is T1, recombinant his-tagged human Cad-11 (R&D Systems) (human, UniProt P55287 54-617).
T1 construct: bought; also called rhCad-11; recombinant human Cad-11; not shown: his tag
T1 sequence: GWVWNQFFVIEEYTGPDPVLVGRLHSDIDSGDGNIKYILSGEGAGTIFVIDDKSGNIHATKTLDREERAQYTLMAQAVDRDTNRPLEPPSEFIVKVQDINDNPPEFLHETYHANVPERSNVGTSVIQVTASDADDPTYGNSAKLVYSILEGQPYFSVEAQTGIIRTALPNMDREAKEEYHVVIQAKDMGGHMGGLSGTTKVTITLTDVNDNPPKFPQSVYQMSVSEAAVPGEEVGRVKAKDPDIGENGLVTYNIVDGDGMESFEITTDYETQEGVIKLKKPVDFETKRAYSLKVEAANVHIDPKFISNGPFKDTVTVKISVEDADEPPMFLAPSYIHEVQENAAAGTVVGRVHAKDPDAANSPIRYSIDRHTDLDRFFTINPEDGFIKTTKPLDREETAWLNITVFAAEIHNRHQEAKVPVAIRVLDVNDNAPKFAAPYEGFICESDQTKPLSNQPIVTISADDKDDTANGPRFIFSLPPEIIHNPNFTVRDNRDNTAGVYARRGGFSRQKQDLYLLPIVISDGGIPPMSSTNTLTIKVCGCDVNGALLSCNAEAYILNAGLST
The experiment can be described thus: SPR, rhCad-11 immobilized, SDP051 as analyte, 2-state reaction model; kd1. The protocol: (§1) To determine the affinity of SDP051 for recombinant his-tagged human Cad-11, rhCad-11 (R&D Systems) was immobilized to the chip at a single concentration, high resolution kinetics were determined for SDP051, and a 2-state reaction binding model was successfully fitted to the kinetic data.
(§2) Kinetic data were obtained at a flow rate of 40 μL/min to minimize any potential mass transfer effects. An analyte concentration series ranging from 12.5 nM to 0.195 nM was prepared by serial dilution. Two repeats of the blank (no mAb) and the 3.125 nM (first and last cycle) concentration of the analyte were programmed into the kinetic runs in order to check the stability of both the surface and analyte over the kinetic cycles. The SDP051 was injected over the Fcs for 360 seconds, long enough to observe the curvature in association phase.

Experiment [2] has as its target T1, recombinant his-tagged human Cad-11 …. The experiment can be described thus: SPR, rhCad-11 immobilized, SDP051 as analyte, 2-state reaction model. As for the experimental part:
as §1, §2
(In SPR one partner is held on a chip, and binding of the other changes the refractive index at the surface.)

The target in experiment [3] is B4. Nature of the experiment: ELISA, BSA-coupled 37-mer cadherin peptide coated at 500 ng/ml, A450. As for the experimental part: (§3) REACTI-BIND™ plates (ThermoScientific) were coated with 500 ng/ml of the BSA coupled cadherin 37-mer peptide (NE peptide) corresponding to Cadherins-7, -8, -9, -11, -18, -20, and -24 in 0.05% TWEEN® detergent (EMD, product code 9480) in PBS (pH 7.2) (Gibco(Invitrogen), #20012) at 100 μl volume/well for overnight at 4° C. The peptide containing solution was removed from the well and the plate blocked with a 2% bovine serum albumin (BSA) in PBS, 200 μl volume/well, for 2 h at 22° C. The plate was then washed twice with 200 μl/well of PBS-TWEEN® detergent 0.05% at 22° C. and blotted dry. A dilution series from 5 μg/ml to 8 ng/ml in a volume of 100 μl/well of each the humanized anti-Cad-11 antibodies were incubated in the petide coated wells and incubated at 22° C. for 1 hr. Antibody solution was removed from the wells and the plate washed twice with 200 μl/well of 0.05% TWEEN® detergent-PBS at 22° C. and blotted dry. The goat-anti mouse IgG (Pierce #31432) was added to each well to plate at a 1:1000 dilution, 100 μl/well and incubate at 22° C. for 30 min. The secondary antibody solution was removed and the plate washed twice with 200 μl/well of 0.05% TWEEN® detergent-PBS at 22° C. and blotted dry. The reaction was developed by adding 100 μl/well tetramethylbenzidine (TMB) reagent IgG (Pierce #34022, 1 step Turbo TMB-ELISA) to plate and developed at 22° C. for 5 min.
(An ELISA detects its analyte on a solid surface through an enzyme-linked reagent.)

For experiment [4], the target named is B5. Described as above. As for the experimental part: as §3
The target of experiment [5] is T2, recombinant Cad-11 EC1 human IgG1 fusion protein (R&D Systems Cat. No. 1790-CA-050) (human, UniProt P55287 54-617, limits assumed).
T2 construct: bought; also called recombinant human Cad-11 EC1; recombinant human Cad-11 fusion protein; not shown: human IgG1 part
T2 sequence: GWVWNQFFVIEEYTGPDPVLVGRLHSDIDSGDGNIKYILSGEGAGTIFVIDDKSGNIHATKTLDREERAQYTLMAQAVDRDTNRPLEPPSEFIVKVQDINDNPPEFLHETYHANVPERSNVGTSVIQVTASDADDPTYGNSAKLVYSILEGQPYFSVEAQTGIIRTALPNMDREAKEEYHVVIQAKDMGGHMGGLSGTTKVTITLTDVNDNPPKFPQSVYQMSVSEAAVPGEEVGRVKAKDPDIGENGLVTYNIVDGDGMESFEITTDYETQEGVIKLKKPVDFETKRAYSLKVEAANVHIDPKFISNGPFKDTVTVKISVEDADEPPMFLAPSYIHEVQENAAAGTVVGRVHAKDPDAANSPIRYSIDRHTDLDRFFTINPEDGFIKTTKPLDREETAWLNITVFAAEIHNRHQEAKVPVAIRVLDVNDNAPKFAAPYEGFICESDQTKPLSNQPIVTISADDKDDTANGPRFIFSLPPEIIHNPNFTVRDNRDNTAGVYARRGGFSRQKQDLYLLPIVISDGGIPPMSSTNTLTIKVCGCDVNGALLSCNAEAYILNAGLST
Nature of the experiment: competition ELISA on coated recombinant human Cad-11 EC1 fusion protein against biotinylated SYN0012 (0.1 µg/ml). The protocol:
(§4) The binding of the purified humanized composite variant antibodies (SDP011 to SDP151) to a recombinant Cad-11 EC1 human IgG1 fusion protein was assessed in a competition binding ELISA. A dilution series from 5 μg/ml to 0.0022 μg/ml of the humanized or control (SYN0012/H1M1) antibodies was premixed with a constant concentration of biotinylated murine anti-Cad-11 antibody, SYN0012/H1M1 (0.1 μg/ml, final concentration), before incubating for 1 hour at room temperature on a NUNC-IIMMUNO™ MAXISORP™ 96 well flat bottom microtitre plate (Fisher Cat. No. DIS-971-030J) pre-coated with 0.25 μg/ml recombinant human Cad-11 EC1 (R&D Systems Cat. No. 1790-CA-050) diluted in PBS. The binding of the biotinylated mAb was detected with streptavidin-HRP (Sigma Cat. No. 55512) and tetramethylbenzidine (TMB) substrate (Invitrogen Cat. No. 00-2023).
(§5) All of the humanized anti-Cad-11 antibodies efficiently competed with SYN0012 for binding to the Cad-11 fusion protein (FIGS. 38A to C). […] The curves were used to calculate IC50 values for each antibody and these were normalized to the IC50 of SYN0012, which was included on each ELISA plate so that comparisons between plates could be made (Table 3). The expression levels of each cell line and the calculated isoelectric point (pI) of each antibody are also shown (Table 3).

For experiment [6], the target named is T2, recombinant Cad-11 EC1 human IgG1 …. The experiment can be described thus: competition ELISA against biotinylated SYN0012/H1M1 (competitor) on coated fusion protein; text says values are normalised to the IC50 of SYN0012. As for the experimental part: as §4, §5
The relative IC50 was calculated by dividing the value for the test antibody by that of SYN0012. Antibody expression levels given are for static cultures in T flasks. PI are calculated.

Experiment [7] deals with T1, recombinant his-tagged human Cad-11 …. The experiment can be described thus: SPR, rhCad-11 immobilized, SDP051 as analyte, 2-state reaction model; ka1. The protocol:
as §1, §2

Experiment [8] has as its target B1. Nature of the experiment: flow cytometry blocking assay: peptide titrated with SDP 051 at 0.5 ug/ml on Cad-11 expressing 431D cells; blocked: binding of SDP051 to cell-surface Cad-11; MFI. The protocol:
Cells were the stained on ice for 45 minutes with increasing concentration of either the 37-mer Cad-11 peptide or Cad-7, Cad-8, Cad-9, Cad-18, Cad-20, or Cad-24 peptides with […] SDP051. After staining the cells were washed twice with Hanks balanced salt solution (HBSS) containing 1% fetal bovine solution (FBS), resuspended and then stained with a 100 μl of goat anti-mouse IgG-PE (100× dilution) on ice for 30′ protected from light. After staining the cells with the secondary agent, cells were washed twice with HBSS with 1% FBS, resuspended and fixed in 200 μl of 2% formaldehyde in HBSS with 1% FBS and then analyzed with a BD FACSCALIBUR™ machine.
Background: A flow cytometer gives signals particle by particle.

No end group written: not given here.

Broadly, the koff is a measure of how fast the partners let go of each other. In general, Kd refers to the constant that tells how readily two partners part at equilibrium. Broadly, the IC50 is the point on the concentration scale where inhibition reaches its midpoint. As a reminder, the kon is the rate constant with which the complex forms.

B1: the koff in experiment [1] worked out at 0.0043 s⁻¹. Besides, the dissociation constant (Kd) in experiment [2] amounted to 0.379 nM. Also, the binding result in experiment [3] and in experiment [4] was “no binding (tested: 5000 ng/ml)” in each case. Besides, the “IC50 (read off the curve)” value in experiment [5] is ~0.2 µg/mL. The half-inhibitory concentration (IC50) in experiment [6] was 0.99 µg/mL. Also, the kon in experiment [7] worked out at 613000 M⁻¹ s⁻¹.

B2: SDP071 humanized anti-Cad-11 EC1 antibody (Vκ2/VH2) (antibody, IgG4, V domains shown)
VH: EVQLVQSGAEVKKPGASVKISCKASGYSFTGYFMNWVKQAPGQGLEWIGRINPYTGDTFYNQKFKGRATLTVDKSTSTAYMELSSLRSEDTAVYYCGRLGSRYWYFDVWGQGTTVTVSS
VL: DVLMTQTPLSSPVTLGQPASISCRSSQSIIHSNGNTYLEWYLQKPGQSPQLLIYKVSNRFSGVPDRFSGSGSGTDFTLKISRVEAEDVGVYYCFQGSHVPWTFGQGTKLEIK
notes: humanized IgG4 (S241P), kappa
Take B2: the binding result in experiment [4] is reported as “no binding (tested: 5000 ng/ml)”. Moreover, the IC50 in experiment [6] came out at 0.33 µg/mL.

B3: SDP061 humanized anti-Cad-11 EC1 antibody (Vκ2/VH1) (antibody, IgG4, V domains shown)
VH: EVQLVQSGPELKKPGASVKISCKASGYSFTGYFMNWVKQAHGQGLEWIGRINPYTGDTFYNQKFKGRATLTVDKSSSTAYMELVSLSSEDSAVYYCGRLGSRYWYFDVWGQGTTVTVSS
VL: DVLMTQTPLSSPVTLGQPASISCRSSQSIIHSNGNTYLEWYLQKPGQSPQLLIYKVSNRFSGVPDRFSGSGSGTDFTLKISRVEAEDVGVYYCFQGSHVPWTFGQGTKLEIK
notes: humanized IgG4 (S241P), kappa
B3: the binding result in experiment [4] is given as “no binding (tested: 5000 ng/ml)”. The half-maximal inhibitory concentration (IC50) in experiment [6] was 0.47 µg/mL.

In the case of B4, in experiment [8], the binding result is on record as “no binding (tested: 3000 ng/ml)”.

Take B5: the binding result in experiment [8] was “no binding (tested: about 80000 ng/ml)”.

The values above are taken from patent US20150132305A1 (ADHERON THERAPEUTICS, published 2015).
